Experimental data as given in the supplement of paper PMC9170038.

Tested on: MS2 coat protein
Experiment: apparent KD of MS2 coat protein; designed switch direction (-1 OFF switch, 1 ON switch): -1; higher = weaker reporter binding
Method in brief: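 Each step of the titration lasted 0.8–1.5 h at the lowest concentration and 10–20 min at the highest. The protein, SNAP-549-labelled MS2 coat protein, went from 0.7 or 1.5 nM doubling to 3 µM over RNA switches transcribed on Illumina chips by stalled E. coli RNA polymerase. Normalised cluster fluorescence was curve-fitted, and the per-design median over clusters is given as apparent KD.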

[1] = Eterna round: R95, input ligand: FMN 200 uM
[2] = Eterna round: R95, input ligand: microRNA oligo, concentration not stated
[3] = Eterna round: R95, input ligand: none
[4] = input ligand: microRNA oligo, concentration not stated

| Sequence | apparent KD of MS2 coat protein (input ligand: FMN 200 uM) [nM] | apparent KD of MS2 coat protein (input ligand: none) [nM] | apparent KD of MS2 coat protein [1] [nM] | apparent KD of MS2 coat protein [2] [nM] | apparent KD of MS2 coat protein [3] [nM] | apparent KD of MS2 coat protein [4] [nM] |
| --- | --- | --- | --- | --- | --- | --- |
| AGGUGACUGGUGAGGAUAUCGUGUUCGAAAGAACGUGAGAAGGCACAUGAGGAUCACCCAUGUGAUCCUCAUCG [Omei Ex4B A30] (Eterna round: R97, puzzle: Brourd's mod of Exclusion 4) | 101 | 27 |  |  |  |  |
| AGGUGUAGAGGAUAUACAGUGUAUUACAUGAGGAUCACCCAUGUCCUUCAAUGGGUAUCAGUAGAAGGCUACACCA [Omei Ex5 C1] (Eterna round: R97, puzzle: Exclusion 5) | 1060 | 485 |  |  |  |  |
| AGGUGUAGAGGAUAUCCAUCCUCCCACAUGAGGAUCACCCAUGUCCUGGUCACCAAGGACGGAGAAGGCUACACCA [Omei Ex5 D21] (Eterna round: R97, puzzle: Exclusion 5) | 108 | 142 |  |  |  |  |
| AGGUGUAGAGGAUAUCGAGUUCUUUACAUGAGGAUCACCCAUGUCCUGGGCACCCAGGACCGAGAAGGCUACACCA [Omei Ex5 D29] (Eterna round: R97, puzzle: Exclusion 5) | 50.3 | 32.8 |  |  |  |  |
| AGGUGUAGAGGAUAUCUAUACUCCCACAUGAGGAUCACCCAUGUCCUGGUCACCAAGGACGGAGAAGGCUACACCA [Omei Ex5 D22] (Eterna round: R97, puzzle: Exclusion 5) | 130 | 68.3 |  |  |  |  |
| AGGUGUAGAGGAUAUCUCUUCUCUCACAUGAGGAUCACCCAUGUCCUAAAGUCCAAGGAGAGAGAAGGCUACACCA [Omei Ex5 D4] (Eterna round: R97, puzzle: Exclusion 5) | 107 | 110 |  |  |  |  |
| AGGUGUGAAGGAUAUAGCGUGGUCGACAUGAGGAUCACCCAUGUGAGAUGGUCGCCGGGUCUAGAAGGUUAGCUAA [Eternabot (L1) Solution 97] (Eterna round: R97, puzzle: Exclusion 5) | 82.5 | 97.2 |  |  |  |  |
| AGGUUGUGAGGAUAUUAGUUAUAUGUUUGGAGGUGUAUGGCUGAGAAGGCACAUGAGGAUCACCCAUGUAGAUC [JR_Ex4_Sub049] (Eterna round: R97, puzzle: Exclusion 4) | 301 | 175 |  |  |  |  |
| AGUAACCGUCACGAAAGUGAUGGUUACGCAAGCAAAUGUACAUGAGGAUCACCCAUGUCCUCAUUUGCUCGUCUUAU [Sensor 3 - 43] (puzzle: Sensor v3, turn-off variant 2) |  |  | 19.6 | 362 | 17.7 |  |
| AGUAACCGUCACGAAAGUGAUGGUUACGCAAGCAAUGAAACAUGAGGAUCACCCAUGUCCUCAUUUGCUCGUCUUAU [Sensor 3 - 41] (puzzle: Sensor v3, turn-off variant 2) |  |  | 24.6 | 347 | 25.7 |  |
| AGUAACUAUCACGAAAGUGAUAGUUACAAUAGCAAGUGAACAUGAGGAUCACCCAUGUCCUCGUUUGCUCGUCUUAU [Sensor 3 - 21] (puzzle: Sensor v3, turn-off variant 2) |  |  | 134 | 418 | 136 |  |
| AGUAACUAUCACGAAAGUGAUAGUUACACAAGCAGUGAUACAUGAGGAUCACCCAUGUCCUCAUUUGCUCGUCUUAU [Sensor 3 - 28] (Eterna round: R96, puzzle: Sensor v3, turn-off variant 2) | 87.4 | 91.9 |  |  |  | 472 |
| AGUAACUAUCACGAAAGUGAUAGUUACACAAGCAGUGAUACAUGAGGAUCACCCAUGUCCUCAUUUGCUCGUCUUAU [Sensor 3 - 28] (puzzle: Sensor v3, turn-off variant 2) |  |  | 83.6 | 698 | 91 |  |
| AGUAAGCUAGGAUAUGCUUUGGGAAAGCAUUCCUUCGAUAAACUUGAGGAUCACCCAAGUAGAAGGAGCUUACU [jl-ex2.4.51 ViennaUCT mod] (Eterna round: R97, puzzle: Exclusion 2) | 22.9 | 12 |  |  |  |  |
| AGUAAUGUAUAAGGAUAUCUCGCAAAUAAAGGCAGAGAAGGUAUACCCACUUGAGGAUCACCCAAGUCUCGUGUGCCUGGUGGA [Mutated MS2 EX1.30] (Eterna round: R96, puzzle: Exclusion NG 1) | 23 | 25.1 |  |  |  | 20.1 |
| AGUACUAACACGAAAGUGUUAGUACAAUAAGCUUGUGACACAUGAGGAUCACCCAUGUCCUCAUAAGCUCGUCUUAU [salish99_TOv2_r3_046] (puzzle: Sensor v3, turn-off variant 2) |  |  | 23.9 | 656 | 25.6 |  |
| AGUACUAACACGAAAGUGUUAGUACUAUAAGCUUGUGUUACAUGAGGAUCACCCAUGUCCUCAUAAGCUCGUCUUGU [Mat - Sensor v3 - Turn-off var 2 - D104] (puzzle: Sensor v3, turn-off variant 2) |  |  | 46.4 | 48.7 | 54.4 |  |
| AGUACUAACACGAAGGUGUUAGUACAAUAAGCUUGUGAAACAUGAGGAUCACCCAUGUCCUCAUAAGCUCGUCUUAU [salish99_TOv2_r3_033] (puzzle: Sensor v3, turn-off variant 2) |  |  | 17.5 | 702 | 17.6 |  |
| AGUACUAACACGAGAGUGUUAGUACAAUAAGCUUGUGGAACAUGAGGAUCACCCAUGUCCUCAUAAGCUCGUCUUAU [Mat - Sensor v3 - Turn-off var 2 - D99] (puzzle: Sensor v3, turn-off variant 2) |  |  | 15.2 | 70.3 | 13.4 |  |
| AGUACUAACACGGUAGUGUUAGUACAAUAAGCUUGUGAAACAUGAGGAUCACCCAUGUCCUCAUAAGCUCGUCUUAU [salish99_TOv2_r3_057] (puzzle: Sensor v3, turn-off variant 2) |  |  | 17.6 | 370 | 15.3 |  |
| AGUACUAACACGUAUGUGUUAGUACAAUAAGCUUGUGAAACAUGAGGAUCACCCAUGUCCUCAUAAGCUCGUCUUAU [salish99_TOv2_r3_066] (puzzle: Sensor v3, turn-off variant 2) |  |  | 18.1 | 764 | 15 |  |
| AGUACUAACACGUCUGUGUUAGUACAAUAAGCUUGUGAAACAUGAGGAUCACCCAUGUCCUCAUAAGCUCGUCUUAU [salish99_TOv2_r3_079] (puzzle: Sensor v3, turn-off variant 2) |  |  | 17.2 | 749 | 16.1 |  |
| AGUACUUUCACGAAAGUGAAAGUACAAUAAGCUUGUGGAACAUGAGGAUCACCCAUGUCCUCAUAAGCUCGUCUUAU [Mat - Sensor v3 - Turn-off var 2 - D32] (puzzle: Sensor v3, turn-off variant 2) |  |  | 17.3 | 72.5 | 15.5 |  |
| AGUAGAUCUACGCUUGCGUGGAUCUGCAAAGCAGGUGUUACAUGAGGAUCACCCAUGUCCUCAUUUGCUCGUCUUAG [JL turnoff v2 99.08] (puzzle: Sensor v3, turn-off variant 2) |  |  | 71.8 | 563 | 65.1 |  |
| AGUAGAUCUACGCUUGCGUGGAUCUGCAAUGCAAGUGUUACAUGAGGAUCACCCAUGUCCUCAUUUGCUCGUCUUAU [JL turnoff v2 99.04] (puzzle: Sensor v3, turn-off variant 2) |  |  | 42.2 | 108 | 40.9 |  |
| AGUAGAUCUACGCUUGCGUGGAUCUGCAAUGUAGGUGUUACAUGAGGAUCACCCAUGUCCUCAUUUGCUCGUCUUAG [JL turnoff v2 99.10] (puzzle: Sensor v3, turn-off variant 2) |  |  | 259 | 810 |  |  |
| AGUAGGUCUACCUUGGUGGAUCUGCAUUAUGCAAGUGAUACAUGAGGAUCACCCAUGUCCUCAUUUGCUCGUCUUAU [JL turnoff v2 99.24] (puzzle: Sensor v3, turn-off variant 2) |  |  | 17.3 | 242 | 16.1 |  |
| AGUAGGUCUACCUUGGUGGAUCUGCAUUAUGCAAGUGUUACAUGAGGAUCACCCAUGUCCUCAUUUGCUCGUCUUAU [JL turnoff v2 99.23] (puzzle: Sensor v3, turn-off variant 2) |  |  | 37.1 | 130 | 36.2 |  |
